Measured values taken from paper PMC9667302.

Molecular target: Bluetongue virus (BTV-1) membrane penetration protein VP5 (bluetongue virus (BTV-1))
Assay: cryo-EM structure

Question: How did the stoichiometry N turn out when “Bluetongue virus (BTV-1) membrane penetration protein VP5 (natural protein)” was run?
Answer: 3
